According to the DeepSol protein solubility set:

Assay: soluble on expression in E. coli; label from the status in PepcDB or PDB records

| Sequence | soluble on expression in E. coli |
| --- | --- |
| MRYLDAEAIENIATGAAFLGTGGGGDPYIGKMMALSAIEENGPVKLVSPEEIAAEDFFLPAAMMGAPSVAIEKFPKGDEFVRVFEKLGKYLDQETIAGTFPMEAGCVNSMIPIVVAAKLGIPLVDCDGMGRAFPELPMVTFHLNGMSATPMAITDEKGNIGIMETIDNTWTERLARVQTVEMGASALVSIYPATGKQLQDYGIHNIVTLSEEIGKVIRGTYADEQEKRQALVEVTDGFELFQGKILDVEREVKGGFNLGRVKLSGLNSDAGSEAVVHFQNENLIAEKDGQVIAMTPDLICMVDLETLTPVTTESLKYGKRVQVMGLKANAAWRTKKGIETVGPRYFGYEMDYQPLENLVAKEDKLEHHHHHH | soluble |
| MQRGLLVLHASAIAAAGKGAIFMGDKGAGKSTTASALIRAGHELLTDDVVALDLARPDAPMIVAGFPQIKLAADAAAAISLGRAEVRPQVHPAIEKMQHRLHGAFSGGMVPATRIYVLERGLEHHHHHH | not soluble |
| MSRDGQNGTATFYFDEPQALVGEVRQDITGMYLLDDEGELATREVKAKFINGQPAGLEAVYLMRSPEEWDRFMRFMQRYAEANGLGFTEALEHHHHHH | not soluble |
| MNALPSSAEFSRAVGGDAVSREAVIRIEHLSKTFSDAAGPVLDDVSLTIRRGEIHGIIGRSGAGKSTLVRCINLLERPSAGRVIVSGREITSLRGRALRNARRDIGMIFQHFNVLSSHTVAGNVALPFKVAGLPRAEIARRIPPLLELVGLAHKADAYPSELSGGQKQRVGIARALALDPSVLLCDEATSALDPETTDQILALLRDINRKLGLTIVLITHEMHVVRDIATRVAVLDHGRVVEEGATFDVLAFPKSAVARSFLSGLVAHELPPPVAAQLLPAAVPGSDPVLRIVFTGTAAHDPIVADLVSVFGIQPNILHGRIDYVGDRPLGVLTLVAGGAGEKLPAVLSHLSSLGLVVEVIGHAVRSAVARRHSAARLEHHHHHH | not soluble |
| MGSDKIHHHHHHMLHPIILAGGVTQTSEWSTGVCHLALETAPGVPSRFEGVLDAMSGDVFADPVVVTTRDNMSLVERQIAARPAALIVEPETHKPAAALLSAVLSLRHMPGALVVVAPATANLADTRNLDKALCNAIPAAQRGEIVMFGQRTTRAYGGFGIMEVVTQPHENAPVAVSRVLASGRKVTLSHLLHGNHQLWGTGLYLARVDVLLAAFKSHASRLFLPVKNALLRAGTVDRTTLLDRATYRRVKAITFEKAVAEKIENICAIQLDPTWSALEEWDQDAAADSAVAQWDEDLAQERAGVLNARAAAPFPHSADMMAVYASLSKISAEDALSAHATEYDWGRLESLAMGPGFTLQRMSIAPGATLDLNAAPGGAEHWIVAQGSVLITIGDHVRLVWEGHSARIPAGRSRRIENPGSGTLVLVQLQVMPLSATGQPQSAASFSPAGVA | not soluble |
| MSLDIVSHQKIRRFEAGTFQEIESSVATEYPLTIYVNDQELVTIVCTPEYLEDLVVGFLTSEGIVRGPRDINSVDIIEATGHAKVSANFVNKFNAKYRGKRYITSCCGKSRENFYFQSDASLVNVKQNGNLQLTTDMIFRLMEKFEQNSATFHQTGGVHNAALCSSAEIIYSRMDIGRHNALDKIYGRALQDGTSTEDKAIIFSGRISSEILVKTAKLGCGIILSRSAPTELAINMAEELNITTVGFIRGDRLNVYSGFERITEGHHHHHH | soluble |
| AHHHHHHGSYVIIMGAGRIGTLVAKMLENSGHDVAIIEMNKDRARAVSDIVSGLVIEGDATDQNILESANVRNADAFVALTGKDDANILACILAKHLNPRIMTILRITDPRKKKIFEEVKDLKKYFDVVVSPEDIAANYIFRVVITPGFDRVLLPREGAEIIQFHIDENSKVAGKAVKDLNLPRDSLIIAIYDEKGNLIIPSGETILPKRGTVVVFAKDSALKEIKKIMEEKVEESEE | soluble |
| MGSDKIHHHHHHAKIRAKNADSYPFMYKNYPFLRPWVDSLNQAHALRDTFVLNPEGIRLHAYYIAAPQPTKKTAVIVHGYTDNAIRMFMIGYLYNHDLQYNVLLPDLQHQGESGGPAIQMGWKDRLDVMQWMHIANQIYGDSTQMVVHGISMGGATTMMVSGEAQPYFVKCFVEDCGYTSVWDEFSHELKSSFHLPSFPLMNTTSWLCQKKYGWNFEEASSLNQVKKSHLPMFFIHGDKDTYVPTWMVYPLYEAKSAPKQLWIVPGAAHAVSYKENKEEYTRKVKEFTDRYIH | not soluble |
| AHHHHHHMVHITLDRNTANSWLIISKDRRQVRMGDTHQNVSDNKERFSNYPMVLGAQRFSSGKMYWEVDVTQKEAWDLGVCRDSVQRKGQFSLSPENGFWTIWLWQDSYEAGTSPQTTLHIQVPPCQIGIFVDYEAGVVSFYNITDHGSLIYTFSECVFAGPLRPFFNVGFNYSGGNAAPLKLCPLKM | soluble |
| MESVPSPRRVVLTPGARRALDAAGRLFYERGIHAVGVDLIAAEAGVTKKTLYDRFGSKEQIVVEYLADRDERWRAFLAGHLDTAGDSPGRRLTAIFDASREWTAENSAKGCSMVNAHAEISDPAHPAYAVIVGQKRWMLDLFTGVCRDASVRDPETLARTVMLLHEGALVSHGLQVFPEAVRLASDQASALLAAAAGPAR | not soluble |
| GHSMHHHHHHLGNKLSISDLKDIKNKKVLVRVDFNVPIENGIIKDTNRITATLPTINHLKKEGASKIILISHCGRPDGLRNEKYTLKPVAETLKGLLGEEVLFLNDCVGKEVEDKINAAKENSVILLENLRFHIEEEGKGVDANGNKVKANKEDVEKFQNDLTKLADVFINDAFGTAHRAHSSMVGVKLNVKASGFLMKKELEYFSKALENPQRPLLAILGGAKVSDKIQLIKNLLDKVDRMIIGGGMAYTFKKVLNNMKIGTSLFDEAGSKIVGEIMEKAKAKNVQIFLPVDFKIADNFDNNANTKFVTDEEGIPDNWMGLDAGPKSIENYKDVILTSKTVIWNGPQGVFEMPNFAKGSIECLNLVVEVTKKGAITIVGGGDTASLVEQQNKKNEISHVSTGGGASLELLEGKELPGVLALSNK | soluble |
| MSHKFSRRAFAVLTAAAISTSAFATTAPSAIAEPVSNVATADDSSVATSENSLDWGFKASWRTYVTGPWTGGTVDATGGATVNEDGTYNFTLGTGSNYDVDTEKGQLNYEGTVAFASDAHGFNITLSNPQITVEGDTATLSAELSDNAAPEETSTTRVDVAEFELTAPEVSETDADITYTWTDASGTFLETLQPEELSRYAGQEADALSFSITVDKASENPSDDVATGSSSSFLSTILNFLQQLASPLLKLFGSLSS | not soluble |
| MSLVQSAVLGFPRIGPNRELKKATEGYWNGKITVDELFKVGKDLRTQNWKLQKEAGVDIIPSNDFSFYDQVLDLSLLFNVIPDRYTKYDLSPIDTLFAMGRGLQRKATETEKAVDVTALEMVKWFDSNYHYVRPTFSKTTQFKLNGQKPVDEFLEAKELGIHTRPVLLGPVSYLFLGKADKDSLDLEPLSLLEQLLPLYTEILSKLASAGATEVQIDEPVLVLDLPANAQAAIKKAYTYFGEQSNLPKITLATYFGTVVPNLDAIKGLPVAALHVDFVRAPEQFDEVVAAIGNKQTLSVGIVDGRNIWKNDFKKSSAIVNKAIEKLGADRVVVATSSSLLHTPVDLNNETKLDAEIKGFFSFATQKLDEVVVITKNVSGQDVAAALEANAKSVESRGKSKFIHDAAVKRRVASIDEKMSTRAAPFEQRLPEQQKVFNLPLFPTTTIGSFPQTKDIRINRNKFNKGTISAEEYEKFINSEIEKVIRFQEEIGLDVLVHGEPERNDMVQYFGEQINGYAFTVNGWVQSYGSRYVRPPIIVGDLSRPKAMSVKESVYAQSITSKPVKGMLTGPITCLRWSFPRDDVDQKTQAMQLALALRDEVNDLEAAGIKVIQVDEPALREGLPLREGTERSAYYTWAAEAFRVATSGVANKTQIHSHFCYSDLDPNHIKALDADVVSIEFSKKDDANYIAEFKNYPNHIGLGLFDIHSPRIPSKDEFIAKISTILKSYPAEKFWVNPDCGLKTRGWEETRLSLTHMVEAAKYFREQYKNEGHHHHHH | soluble |
| MGSDKIHHHHHHMALWQYSFRGGDDMKFAHLERLNLTLRALAPVFIGSGEQLGKKEYIFDSPNALIYFPDFPRLVAFLKERSLLAEYEKFLSTPRLKDIRVFLEENGISAADYPSFVRYSIAAGEAAHIENFREVLTFIKDSKGYPYIPGSSLKGAIRTALATYLLKRGDWERDRRNIEGSDSSVPARKYLARESSTVEKKVFYQLDIRNPKDGKEISSPINDLMQGIRISDSAALSFENLTLTGKYDRKPDGTVNLLPIFRECLTPGSEAHLQLTLDLPMLARVGLNAGIIEEALHDFADEHYAHFEQYFAELPEDASVAAKEGVDIFLGGGVGYVSKTLTYNLFPQRENAVSLAAKILTKQFSPKHGHSKDASQYKVSPHILKTTMYAGEYYHMGKCELIITR | not soluble |
| MGSDKIHHHHHHMHGNADVKFGNESVFDLARGSSTNDELLNICMIRSGFKKFEEEKEIQNTDGFFIADTSVYIKLGNRLGYLTKDRLLASKSVYNELSERTKLTQMGKEIIVFYLGMYSYRHLHKSPPVSEYNKSGDIPLIEETRKIKENIPEKVTLITADRQLKQRARTLGVNVIFLNTLKSDSGNMSELLLCASNRREYMEKYDYARRDLTITINDKEVIKIESDPTKEGFSRIKTLNKEFNYAKLIEKLYEMI | not soluble |
| MAHHHHHHMSQQQWTPDQRRQQIAEMLRNKGVICRDFLFTGRCSRSPTCPYMHVANGETRPVPWSVCTFFTQGKCLRDGCSFFHGTQAQLEELHASGAPVYRPQDYMKIAVPPAEYLNADGSIATHLSIAAVPMTPALHVVHGPTVSHENAVNSFQPVLVMQPNSQAIAPTMFASQGRTAHSTPSHFAFYANAPITSQMPTHSAATVLQPTLHTVQPTTFYQAANALLAQPQQHFAPVPQLNTPQQHQLTQQALGSRVYFHIQPH | not soluble |
| MKDSPFYQHYDLDLKDKPLGEGSFSICRKCVHKKSNQAFAVKIISKRMEANTQKEITALKLCEGHPNIVKLHEVFHDQLHTFLVMELLNGGELFERIKKKKHFSETEASYIMRKLVSAVSHMHDVGVVHRDLKPENLLFTDENDNLEIKIIDFGFARLKPPDNQPLKTPCFTLHYAAPELLNQNGYDESCDLWSLGVILYTMLSGQVPFQSHDRSLTCTSAVEIMKKIKKGDFSFEGEAWKNVSQEAKDLIQGLLTVDPNKRLKMSGLRYNEWLQDGSQLSSNPLMTPDILGSSGAAVHTCVKATFHAFNKYKREGFCLQNVDKA | soluble |
| MDQNPNYNFGYGQAYGSGTDHTSDSTNNYNWASQWSQPESAASLATHTFPQYVSQQQQQQQQQAQQQAQNTYAAMNPISTFMQQQQRAQTFPQKKYGQQGGAPKPSAIRNNNFGAFGGGHALSQEWVQPMSQNQMGGPQGNRFFNNQKGGPFNQNKPNWRQNKPKGPAAPKKFDSTGKSPAMLLHELFKDVSEEYTEVEGVPKKYCCTLKVNGRTFQMESVNKKAAKQKCSELVVRDLRPDVHVTPFEEGVAAKAAAPVKKEIDAASGNGQNNKRNLLQADAISNQPTPKKVSAVKKAKLQLTPVESALSLLDLMQKIIAESAEKYSPVFEASEVPKDPEIPEVEVKKEEVDTNGENVANEKKSGWRKNETMHNVTLKFVEQNKQYTKMGPSRGVLKDMVIREALRDLFNVSHADITTVARRHASNRLGHDTTILQCLNTICSILNCTLTIECEPAEDRPLGIGRAYFMAKCTIIDHNENDLKFEVKSSSLASKAMAKDWVAQETLKNYFAIDPSSCVKTDAVSSQGPCALLHAMLNKQTKQKCKIAYEFKDNVPPVAGQATTTFYCECVIDETDRYIGVGRSKKLAKSEAAMQALKKLFKIDYDPAGNYPLALTSRAMTESKVSPLCRHIAEFCKREYHQMTEYYQIPPSNLFAAFLLVNAQEEKRVLAMGSSIQYIVEPDTLSGANGTSLLHLDAIILARRAMLKAFIHELSTVDSECSIFEKKEEGKAALKPNLRLVLYSNYSPPCIHAVDDAATKKLSYVTPTNLTCVPDDVLTYEQIKETKSLRVHCTADKLFKWNTLGIQGALLSNVLHPIFIDNIFFGSEAPVSDESLSYALQGRLGPNENEREIIVESMPVQMRMHMGISHLWHRGVDSVETLDYNTGRTSKGSPSRVCKAEIFEAYRKLNGVDQAVVNYAKAKEMASEYQYEKKVFYEKLEAAGLGKWQTKPAELVDSFTLAAFD | not soluble |
